From PMC12273918 (2025)

What was measured:
CD163 D1-D5 = molecular target: T1, CD163 D1-D5 (Homo sapiens, UniProt Q86VB7); test: SPR
T1 chain: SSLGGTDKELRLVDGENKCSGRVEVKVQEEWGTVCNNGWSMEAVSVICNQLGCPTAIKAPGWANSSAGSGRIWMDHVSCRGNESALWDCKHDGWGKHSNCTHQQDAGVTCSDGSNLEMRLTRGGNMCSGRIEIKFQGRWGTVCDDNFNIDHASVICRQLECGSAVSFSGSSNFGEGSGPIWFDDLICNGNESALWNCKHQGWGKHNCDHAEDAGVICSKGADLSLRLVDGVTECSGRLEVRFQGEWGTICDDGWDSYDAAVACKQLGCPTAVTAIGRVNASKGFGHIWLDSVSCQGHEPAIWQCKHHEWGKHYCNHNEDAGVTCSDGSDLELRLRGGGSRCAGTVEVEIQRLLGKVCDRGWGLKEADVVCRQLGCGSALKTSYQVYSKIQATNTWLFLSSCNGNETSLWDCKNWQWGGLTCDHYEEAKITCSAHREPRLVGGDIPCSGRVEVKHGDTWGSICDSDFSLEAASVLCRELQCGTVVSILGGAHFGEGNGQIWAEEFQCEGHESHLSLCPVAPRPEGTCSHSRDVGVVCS

CD163 42-1045 = CD163 42-1045 (Homo sapiens, UniProt Q86VB7); test: SPR

B1: Haptoglobin(1-1)-hemoglobin complex (protein)
chain 1: VDSGNDVTDIADDGCPKPPEIAHGYVEHSVRYQCKNYYKLRTEGDGVYTLNDKKQWINKAVGDKLPECEADDGCPKPPEIAHGYVEHSVRYQCKNYYKLRTEGDGVYTLNNEKQWINKAVGDKLPECEAVCGKPKNPANPVQRILGGHLDAKGSFPWQAKMVSHHNLTTGATLINEQWLLTTAKNLFLNHSENATAKDIAPTLTLYVGKKQLVEIEKVVLHPNYSQVDIGLIKLKQKVSVNERVMPICLPSKDYAEVGRVGYVSGWGRNANFKFTDHLKYVMLPVADQDQCIRHYEGSTVPEKKTPKSPVGVQPILNEHTFCAGMSKYQEDTCYGDAGSAFAVHDLEEDTWYATGILSFDKSCAVAEYGVYVKVTSIQDWVQKTIAEN
chain 2: not shown
chain 3: not shown
modifications: Ca2+ (5 mM CaCl2), biotinylated Hp(1-1) immobilized
- Kd (CD163 D1-D5): ~684 nM
- Kd (CD163 42-1045): ~72 nM
